Results taken from patent US20160017037A1 (GlaxoSmithKline, published 2016).
Numbering of substitutions follows the chain as printed.

T1: recombinant soluble human FcγRIIa R131 (human, UniProt P12318 36-218, limits assumed)
T1 sequence (looked up): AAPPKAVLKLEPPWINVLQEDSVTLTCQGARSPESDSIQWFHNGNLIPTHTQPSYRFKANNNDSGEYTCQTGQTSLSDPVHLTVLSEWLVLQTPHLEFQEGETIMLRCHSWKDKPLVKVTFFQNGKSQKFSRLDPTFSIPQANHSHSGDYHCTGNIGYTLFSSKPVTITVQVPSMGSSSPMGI

T2: recombinant soluble human FcγRIIa H131 (human, UniProt P12318 36-218, limits assumed)
T2 sequence (looked up): T1 sequence (looked up) with R132H

T3: Human LAG-3 on cells (human LAG-3 expressing EL4 cells; activated human CD3+ T cells) (human, UniProt P18627 23-525)
T3 construct: whole, on cells; also called LAG-3 positive T cells
T3 sequence (looked up): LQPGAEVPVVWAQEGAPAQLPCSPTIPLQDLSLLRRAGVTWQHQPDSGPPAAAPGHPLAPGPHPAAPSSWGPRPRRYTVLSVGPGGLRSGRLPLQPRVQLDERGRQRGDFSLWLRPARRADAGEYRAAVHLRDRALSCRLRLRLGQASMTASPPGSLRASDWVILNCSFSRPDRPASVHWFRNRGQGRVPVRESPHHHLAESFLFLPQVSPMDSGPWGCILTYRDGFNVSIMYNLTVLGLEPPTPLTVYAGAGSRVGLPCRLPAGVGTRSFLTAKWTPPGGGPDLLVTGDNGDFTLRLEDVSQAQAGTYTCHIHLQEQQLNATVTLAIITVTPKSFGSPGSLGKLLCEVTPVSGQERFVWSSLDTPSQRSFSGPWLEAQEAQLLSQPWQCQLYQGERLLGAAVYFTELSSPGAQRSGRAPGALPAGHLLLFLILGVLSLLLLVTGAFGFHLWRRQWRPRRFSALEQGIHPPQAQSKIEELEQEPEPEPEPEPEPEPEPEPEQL

B1: H5L7BW (antibody, human IgG1, kappa)
heavy: not shown
light: DIQMTQSPSSLSASVGDRVTITCKSSQSLLNPSNQKNYLAWYQQKPGKAPKLLVYFASTRDSGVPSRFSGSGSGTDFTLTISSLQPEDFATYYCLQHFGTPPTFGQGTKLEIKRTVAAPSVFIFPPSDEQLKSGTASVVCLLNNFYPREAKVQWKVDNALQSGNSQESVTEQDSKDSTYSLSSTLTLSKADYEKHKVYACEVTHQGLSSPVTKSFNRGEC
modifications: afucosylated: no fucose on the core carbohydrate structure attached to Asn297
notes: Same plasmids as H5L7, expressed in the BioWa POTELLIGENT (FUT8 knock-out CHO) cell line; also called afucosylated antibody H5L7BW; afucosylated H5L7
B2: IMP731 (antibody, human IgG1, kappa)
heavy: not shown
light: DIVMTQSPSSLAVSVGQKVTMSCKSSQSLLNGSNQKNYLAWYQQKPGQSPKLLVYFASTRDSGVPDRFIGSGSGTDFTLTISSVQAEDLADYFCLQHFGTPPTFGGGTKLEIKRTVAAPSVFIFPPSDEQLKSGTASVVCLLNNFYPREAKVQWKVDNALQSGNSQESVTEQDSKDSTYSLSSTLTLSKADYEKHKVYACEVTHQGLSSPVTKSFNRGEC
notes: Chimeric (murine variable domains, human IgG1/kappa constant regions); also called A9H12; chimeric antibody IMP731
B3: H5L7 (antibody, human IgG1, kappa)
heavy: not shown
light: B1 light
notes: Humanised IgG1/kappa of A9H12 (IMP731); also called fucosylated H5L7; non-ADCC enhanced variant H5L7

Molecular target: T4, recombinant soluble human FcγRI (human, UniProt P12314 16-288, limits assumed)
T4 construct: also called CD64
Assay: SPR ProteOn XPR36, His-tagged receptor captured on anti-poly-histidine IgG, antibody analyte 8-2048 nM, equilibrium model, 25 C
Protocol: (§1) A goat anti-poly-histidine IgG was immobilised on a GLM biosensor chip by primary amine coupling. This surface was used as a capture surface for the poly-histidine tagged human Fc gamma receptors. […] The goat anti-poly-histidine IgG surface was regenerated with 100 mM phosphoric acid between interactions. The run was carried out on the ProteOn XPR36 Protein Array Interaction System at 25° C. and using HBS-EP as running buffer. Data was analysed for each receptor separately, setting a global R-max and using the Equilibrium Model inherent to the ProteOn's analysis software. Control molecules were run at the beginning and the end of the set of samples to be tested to ensure comparability of results. Data was compared from two experiments and hybrid control antibodies used as controls between experiments.

T4 sequence (P12314 16-288 limits assumed): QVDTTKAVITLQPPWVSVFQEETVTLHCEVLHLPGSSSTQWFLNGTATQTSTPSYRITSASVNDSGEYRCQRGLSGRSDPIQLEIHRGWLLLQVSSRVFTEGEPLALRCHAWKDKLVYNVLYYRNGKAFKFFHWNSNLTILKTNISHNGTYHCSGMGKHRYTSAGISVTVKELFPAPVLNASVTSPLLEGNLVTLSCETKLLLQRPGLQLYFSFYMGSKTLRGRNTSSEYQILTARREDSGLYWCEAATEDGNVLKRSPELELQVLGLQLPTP

In order of falling Kd:
1. B2  39 nM
2. B1  26.4 nM
3. B3  26.3 nM

Molecular target: T1, recombinant soluble human FcγRIIa R131
Assay: as above
Protocol: as §1

In order of falling Kd:
1. B2  2620 nM
2. B1  1490 nM
3. B3  792 nM

Molecular target: T2, recombinant soluble human FcγRIIa H131
Assay: as above
Protocol: as §1

In order of falling Kd:
1. B1  1430 nM
2. B2  1280 nM
3. B3  638 nM

Molecular target: T5, recombinant soluble human FcγRIIIa V158 (human, UniProt P08637 17-208)
T5 construct: also called FcγRIIIa valine V158; CD16
Assay: as above
Protocol: as §1

T5 sequence (P08637 17-208 F176V limits assumed): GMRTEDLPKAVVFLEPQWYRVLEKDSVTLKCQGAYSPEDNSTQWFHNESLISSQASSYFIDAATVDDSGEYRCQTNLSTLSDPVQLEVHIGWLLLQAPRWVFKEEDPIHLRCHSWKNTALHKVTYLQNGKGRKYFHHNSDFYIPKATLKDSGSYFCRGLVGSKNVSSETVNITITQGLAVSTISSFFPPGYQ

In order of falling Kd:
1. B2  406 nM
2. B3  236 nM
3. B1  21.8 nM

Molecular target: T6, recombinant soluble human FcγRIIIa F158 (human, UniProt P08637 17-208)
T6 construct: also called FcγRIIIa phenylalanine F158; CD16
Assay: as above
Protocol: as §1

T6 sequence (P08637 17-208 limits assumed): as the sequence (P08637 17-208 F176V limits assumed) above, with V160F counted along it

In order of falling Kd:
1. B2  1750 nM
2. B3  752 nM
3. B1  81.1 nM

Molecular target: T3, Human LAG-3 on cells (human LAG-3 …)
Assay: flow cytometry (MFI), Alexa647-conjugated antibody titrated on activated human CD3+ T cells; direct binding curve, half-maximal value labelled IC50 in the table under the graph; unit taken from the concentration axis
Protocol: CD3⁺ T cells were prepared from PBMCs by negative selection using Untouched Human T cell Dynal beads. CD3⁺ T cells were activated by incubation with immobilised anti-CD3 and anti-CD28 and soluble recombinant human IL-12 for 3 days at 37° C. Activated cells were incubated with Alexa 647-conjugated antibodies of varying concentrations up to 3 μg/ml for 30 minutes at room temperature. Cells were washed with FACS buffer (PBS+0.5% BSA).
EL4 cells and CD3⁺ T cells were analysed by FACS using a Beckman Coulter FC 500 flow cytometer. FACS raw data were analysed using CXP Analysis software (Beckman Coulter). The data was initially plotted on a forward-scatter versus side-scatter plot and the population of cells of interest were gated. This gated population was then plotted as a histogram displaying fluorescence intensity and the mean fluorescence intensity (MFI) calculated. MFI values were then plotted in GraphPad Prism 5 software to generate dose response curves.

In order of falling IC50:
1. B1  3.07 ng/mL
2. B3  3.06 ng/mL
3. B2  2.14 ng/mL
